{"source": "the DeepSol protein solubility set", "data": [{"test": "soluble on expression in E. coli; label from the status in PepcDB or PDB records", "values": [{"sequence": "MKIAIVGTGISGLTCGYYLHQQHDITLFEANDYIGGHTATVDVRVGIEDYAIDTGFIVYNDRTYPNFIKMMNEIGVEGIPTQMSFSVRNDGNGLEYNGHTLTTLFAQKRNWLNPKFYRFVLEILRFNKLAKASATEQISSSQSLGAFLDEHQFSDFFSDNYILPMGAAIWSSSLADMRAFPLMFFLRFFLNHGLLDVTNRPQWYVIKGGSRAYIPPLTQGFADKIRLNSPVEKVVRSEQGVAIYANGQCEWFDEVIFACHSDQALAMLSDASSCENDILSNMAYQANDVVLHTDTSVLPKRKSAWASWNYLLEGGEEEQQRLPSLTYNMNILQHIDSSHTFCVTLNRTEDIDENKILRQFTYHHPVFTTESIAAQQRKEEIQGAQHTWFCGAYWYNGFHEDGVRSALDVVKGIAAKHNEKNDTLYEQGAALEHHHHHH", "soluble on expression in E. coli": "soluble"}, {"sequence": "SLYCIEEKIEKALGIKEASLVLKNCNIVNVFSSEIIRGDLAIDGDTIIGIGKYKGKTEIDLSNKYVAPGFIDSHVHIESSMVSPKEFARAVISRGTTTIIVDPHEIANVCGMDGIKYMMEETKNMPLDVFFMLSSCVPATSFETSGAVLKAEDLKELIDSDRVLGLGEMMNYPGVLSREEEVLNKLKLAGSYNKIVDGHAPSVRGNELNAYNLAGIKTDHECSSIEEMNEKIRNGMYIAIREGSAAKNLDILIKGVNAKNERRIMFCADDRHPDDILKSGHMDNCVRRAIYNGIENTAAIRMASINAAECYKLERVGAIAPSYKADLVVLEDLKDVKVNMVIKSGEVVFKDNKHLKDMGSKSDITKVSNTVNIKKVSEENLELKLDTDVCSIISVALNSISTKNVKRKVNLSNGIFKCELNYGINKVAVIERHKKSGSIGIGLVENFGLKRGAIASTVAHDSHNIIVLGNNDEDMVKAVNEIERVGGGITISLDGKIIETLELEIAGLMSNKSMEFVAERVSKMINICHNTLGVNKDIQPFMTLAFLALPVIPEIRITDKGVFDVVNFKFL", "soluble on expression in E. coli": "soluble"}, {"sequence": "IGNTLHNYSVLADSKSVLLGVMSKNIQVGSFAYRYLCRTSSRMNLNHLQTVDGPIGRCYTLISQDGERTFAINEGHMNQLLPESIPEEVFEKASALVVSSYLMRGKEEDPMPKAVQRAIDFAKKHDVPVVLTLGTKYVIEGNAEWWQEYIRENVSVVAMNEEEGAALTGEHDPLAAADKALEWVDLVLCTAGPNGLYMAGYTDEKVKRETTHDILESSIEEFNKFEFSRAMRKEDCVNPMKVYSHIGPYLGGPLEIKNTNGAGDAALSALLHDMAANSFHQKEVPTSEKHEVRCLTYSSLSQICKYANRVSYEVLTQHSPRLSRALPEREDSLEETYWDR", "soluble on expression in E. coli": "not soluble"}, {"sequence": "MSLAGVSVGTVDRVIHNRGRVSEENRKKVQTILEMVHYQPNLMARSLASKKQYHFVAITPSFTHGEYWEAISDGIDKAASEMESYNITITKLFFDQYNNKTFDDIVRNLLDEKVDGVLIATLFTDSVIRLSQELDRNEIPYVYVDSNIEGQHQLAYFGTESYDAGVIAARLLTDKISSTSDILMARIIHSGKNDSNQGKNRREGFCHYLKETGFTGNLHEVELKINDSVYNFIKLDEIFEANATIEGGIIFNSTCYILGNYLKARGMQKVKLVGYDLIERNTQLLSDGVITALVAQRPERQGYDGIKSLCNHLLFKQNPEKVNLMPIDILLKENLKYYLNNKEGHHHHHH", "soluble on expression in E. coli": "soluble"}, {"sequence": "MHKNREKNAMRREVNRADIGGKSGNKVKDCHVTIIRSLLSQIKENSLRVLLTYRKLFTINTKIAVEFIINSCIVYYKRSPHLL", "soluble on expression in E. coli": "not soluble"}, {"sequence": "MSLGKRIFVFDTTLRDGEQVPGCQLNTEEKIIVAKALDELGVDVIEAGFPVSSPGDFNSVVEITKAVTRPTICALTRAKEADINIAGEALRFAKRSRIHTGIGSSDIHIEHKLRSTRENILEMAVAAVKQAKKVVHEVEFFCEDAGRADQAFLARMVEAVIEAGADVVNIPDTTGYMLPWQYGERIKYLMDNVSNIDKAILSAHCHNDLGLATANSLAALQNGARQVECTINGIGERAGNTALEEVVMAMECHKETLGLETGINHKKLVPISHLVSTLMRMQVQSNKAIVGRNAFAHSSGIHQDGFLKHRETYEIIDPAAVGADSSSIILTARSGRAALNHRLATIGYMLSKDQLDQAYTQFLDMADHLRKVEDENLHELMRGKVYAKEGHHHHHH", "soluble on expression in E. coli": "soluble"}, {"sequence": "MEGQENKVLFGLENVHYATYSETDGVITYDTPKPLPGGVEISVEPQGDMIKFYADNIVYYQAPNNQGYEGTLTIASIPEGFATDCLGEELDTVDGVLTEKSDAKPKPFALLFEFDGDVKSVRQVLYNCTASRPTVASSTLEHHHHHH", "soluble on expression in E. coli": "soluble"}, {"sequence": "MSLENKIVKIEPQSIAEEMGIEVGDSLISINGKEVKDIIDYRFLMADEYVVVKIQKTNKEIWELEIEKEYDEKLGVEFESGILDSAKSCRNKCIFCFIDQLPKGMRKTLYFKDDDSRLSFLQGNFVTLTNMSDDDIDRIIKYRISPINISVQTTNPELRKKMLNNKFAGNLMERMKKLSNAGITMNCQVVLCPGINSGEEFSKTVNDLYKLYPSVKNIAGVPVGITSYREGLFNMVPYDSQSALKEIENIKPIQEKFIKEIGSPFVRLSDEFYVLSGIPIPKAEFYGEFEQFEDGIGMIRTFRDNINMSLDNLKDGIHKSFTMVTGVLAYEEIENAAKMLMEKSRGLKINVIKVINEFFGEKITVAGLLTGRDILNYLKRNEVGDYIILPSNMLKSDEDVFLDDVKVLDIEKELNKKVLVCNYSGEDLVDIINKNGREEEGHHHHHH", "soluble on expression in E. coli": "not soluble"}, {"sequence": "MLRFRCILSTSRSIMSGVKEFDYLVIGGGSGGIASARRAREFGVSVGLIESGRLGGTCVNVGCVPKKVMYNCSLHAEFIRDHADYGFDVTLNKFDWKVIKKSRDEYIKRLNGLYESGLKGSSVEYIRGRATFAEDGTVEVNGAKYRGKNTLIAVGGKPTIPNIKGAEHGIDSDGFFDLEDLPSRTVVVGAGYIAVEIAGVLANLGSDTHLLIRYDKVLRTFDKMLSDELTADMDEETNPLHLHKNTQVTEVIKGDDGLLTIKTTTGVIEKVQTLIWAIGRDPLTKELNLERVGVKTDKSGHIIVDEYQNTSAPGILSVGDDTGKFLLTPVAIAAGRRLSHRLFNGETDNKLTYENIATVVFSHPLIGTVGLTEAEAVEKYGKDEVTLYKSRFNPMLFAVTKHKEKAAMKLVCVGKDEKVVGVHVFGVGSDEMLQGFAVAVTMGATKKQFDQTVAIHPTSAEELVTMRGGVKPE", "soluble on expression in E. coli": "not soluble"}, {"sequence": "MKLIWSEESWDDYLYWQETDKRIVKKINEIIKDTRRTPFEGKGKPEPLKHNLSGFWSRRITEEHRLVYAVTDDSLLIAACRYHYLEHHHHHH", "soluble on expression in E. coli": "soluble"}, {"sequence": "SDTRQLPNRPVEVTIMGLGCAQMGNLYRVTPYEESKGAFDKAWESGMRYFDTAPFYGYTRSERRLGTMVTEHDRGDYTLSTKVGRVMVPDETVGPEEDAYIAPLPFRPVYDYSYDGILRSFEASQQRLGILKPDILYVHDIGSHTHGEKHQHYWEQLTTGGGFRALGKLRDEGSTGAVGLGVNEWEIINDAMDVFDIDVAMLAGRYTLLEQQSLAFMNRCAESGVAIVVAGAFNSGILAGNRKFNYADAPADILKRVDALHNVCEELGVSLQAAALQFPLAHPASVTVVSGARNAQQLASNIEWFEQSIPDEFWSELHK", "soluble on expression in E. coli": "not soluble"}, {"sequence": "MGSDKIHHHHHHMALWQAKQVCPEIIFVPPRMDLYLRFSQMAREIYSEYTDKIEPYGIDEAWLDVSDSGNLKGSGMTIAREISHRIKYELGVTVSIGISWNKIYAKLGSDYKKPDAITEFNRENYKDRIWQLPASDLLYVGRQTNKKLQKLGIRTIGQLAESDEKLLESHFGKIGNVLWAFANGWDEDPVCKEGYEAPVKSIGNSTTTPRDLENDLDVWIIQIALAESVAARLRKHGFKCKTVEITVRDNGLYSFSRQIHLRQPTNITNEIVTAAFQLFKDNYKWEHPIRSLGIRAADLVLDDIPVQLDLFGNQEKKEKLEKLDRTVDEIRRRFGYFSIQRAAMYQDKVLSHLDAGTHTVHPHSYFHG", "soluble on expression in E. coli": "not soluble"}, {"sequence": "MILMAIGLLMGSYYAVEWYKGKSSAQELTNEEIKSFKNIQHNQLPYETLVTSQVPSSQTEHKEGEKVAMLNIPKLKKKFSIYWGADDATLKKGVGMFVSDVTTTPSGGGHTVLSGHRDTVFTDLGQLKEKDTLVLEYDNKTYTYEIQKIWITHADDRTVIIKKEEPILTLTTCYPFDYIGDAPDRYIIEAKLTGSYSK", "soluble on expression in E. coli": "not soluble"}, {"sequence": "MIRRENRLRREFIFRKSLEEKQKSLEEKREKIRNALENNTKIDYNLRKDAIELAKGSDWGGQQYETDSEYRWAGAQDPKIVITTSRDPSSRLKMFAKEMKLIFPNAQRINRGHYDVKQVVQASKAQDSTDLIIFTETRGNPDGMLVCHLPFGPTAFFSMANVVMRHDIPNCGTMSEQYPHLIFDNLNSKLGHRFTTILKHLFPVPKPDSKRIITFSNSEDYISFRHHVYKTENDGEVELTEAGPRFELKPYQIKLGTLETLAAAEDEWVLRSYTNTARKRTFLSISRADDDE", "soluble on expression in E. coli": "not soluble"}, {"sequence": "MLERTQVFVDTSYLLASFYNSWETGARAQLEIDLPEVVGVLGRMIEQQLKQPVQRQMWYDGIPDSGPHRYQRALRTCDGVQLRAGQLIEWGERRTQKAVDTRLVADLVLAGVRGQCSDIVLVSGDADMIPGVQEAANAGLRVHLYGFGWDSMSSQLRHCCDTTTILDPRED", "soluble on expression in E. coli": "not soluble"}, {"sequence": "PQFHLWKRPVVTAHIEGQPVEVLLDTGADDSIVTGIELGPHYTPKIVGGIGGFINTKEYKNVEVEVLGKRIKGTIMTGDTPINIFGRNLLTALGMSLNF", "soluble on expression in E. coli": "soluble"}, {"sequence": "MSLQPNTYFLHNILVTGATGFVGSFLCSRLLAEGMSVRGTFLVTENPDSLVKGTEQALIEPIGPATFWGHALAGAGTVIHLAARVHVMRERAADPLKEFRFVNTEGTAHLAREAAKAGVKRFVFMGTIGVNGDNSGDAPYIESSPPYPHNPYSVSKYEAEQLLRQISSETGMEVVIIRAPLVYGPGNPGNFLSLLKAVNGDYGFKTLNFGLKVLPLPLASINNKRSLIYVGNLVDALVTCATHPAAVGQTYLVSDGEDVSTPELIRRTAAALGVPARLFPFPVPLMKLAGKLIDKSAAVNRLTGSLTVDSSKIRRELGWQPPFTMEEGLQETAKWFEKQGEGHHHHHH", "soluble on expression in E. coli": "soluble"}, {"sequence": "MIDRQTNEPKQKTRIILAPMQGLVDDVMRDLLTRIGGYDECVSEFVRITHTVHSRSIWLKYVPEIANGNKTFSGTPCTVQLLGSDADNMAANALEAVRFGANKIDLNFGCPAPTVNKHKGGAILLKEPELIFHIVKTLRGRLPAHIPLTAKMRLGYEDKSRALECACAIAEGGACGLTVHARTKAEGYEPPAHWEWIRKIRDSVNIPVTANGDVFSLQDYIGIKTISGCNSVMLGRGAVIRPDLARQIKQYENGGPVKDTDFAEVSKWIRQFFELCLTKEANNKYPLARLKQWLGMMKKEFAAAQNLFDRVRTVKDADEVRNILAEFEREMNT", "soluble on expression in E. coli": "not soluble"}, {"sequence": "MGSDKIHHHHHHDGKFTLGAGVGVVEHPYKQYDADVYPVPVISYESENFWFHGLGGGYYLWNDTNDKLSITAYWSPMYFKPGDSDSEQMRRLDKRKSTVMAGLSYVHNTPYGFLRTTIAGDTLDNSNGINWDLAWLYRYTNGNLTLTPGIGVEWNSDNQNEYYYGVSRHESRRSGMRSYDPDSSWNPYLELSANYRFLGDWSVYGVARYTRLSDEITDSPMVDKSWSGLISTGITYTF", "soluble on expression in E. coli": "not soluble"}, {"sequence": "MGVRLAVRCFVVDGVLIDTGAKSMENEFTSFFQQQDIDQVVITHFHEDHTGCAAFLQRSMGLPIYMNEPMIEYCRQKADYPLYRKIFWGKRDPFAAKPIGATFSSRNATWDVIPTPGHAIDHVVFLNRETGQLFSGDLYCQEKTKVILREEDIPTIIASLQHVLTYDFGDVFCAHAGYLPLEHHHHHH", "soluble on expression in E. coli": "not soluble"}, {"sequence": "MRQVDFFTLRLFLSAVEEGQIGRAALRENIAPSAATKRIQELEDVVGLRLLERTPKGVILSPAGEVLVRHIRQIFTNVDELRAELSAFSEGVRGEVSVASARSIIAPYLAHEFGAYIRDYPLVDLIVREVENAAIVQAVAQGDADIGVFAAAPALDLSGVDVMPYRQDRMVVVMSHGHRLAQRQSVTFEDLLSENLIVPAALHMALRTAADRLGREFEPKYGVTSAGVAISLAQEGLGVTIQPECLLDLKVFEHAVGVELAESWANRSIHIATARGRAAGPAANLLLKQLLDRPRALSSVSD", "soluble on expression in E. coli": "not soluble"}]}]}
